Consider 11 molecules from patent US20230374132A1 (Innovent, published 2023).

B1: 030 (bispecific antibody, human IgG1, kappa, lambda, L234A L235A)
heavy 1: not shown
light 1: not shown
heavy 2: not shown
light 2: QAVVTQEPSLTVSPGGTVTLTCRSSTGAVTTSNYANWVQQKPGQAPRGLIGGTNKRAPGVPARFSGSLLGDKAALTLLGAQPEDEAEYYCALWYSNLWVFGQGTKLTVLGQPKAAPSVTLFPPSSEELQANKATLVCLISDFYPGAVTVAWKADSSPVKAGVETTTPSKQSNNKYAASSYLSLTPEQWKSHRSYSCQVTHEGSTVEKTVAPTECS
notes: 1+1, IgG1 LALA knob-into-hole; also called CLDN18.2xCD3 bispecific antibody 030; HB37A6 x HzSP34.24
B2: 032 (bispecific antibody, human IgG1, kappa, lambda, L234A L235A)
heavy 1: not shown
light 1: not shown
heavy 2: not shown
light 2: B1 light 2
notes: 1+1, IgG1 LALA knob-into-hole; also called CLDN18.2xCD3 bispecific antibody 032; HB37A6 x HzSP34.87
B3: sp34 (antibody, human IgG1, lambda, L234A L235A, V domains shown)
VH: EVQLVESGGGLVQPKGSLKLSCAASGFTFNTYAMNWVRQAPGKGLEWVARIRSKYNNYATYYADSVKDRFTISRDDSQSILYLQMNNLKTEDTAMYYCVRHGNFGNSYVSWFAYWGQGTLVTVSS
VL: QAVVTQESALTTSPGETVTLTCRSSTGAVTTSNYANWVQEKPDHLFTGLIGGTNKRAPGVPARFSGSLIGDKAALTITGAQTEDEAIYFCALWYSNLWVFGGGTKLTVLG
notes: mouse variable regions on human IgG1 L234A L235A and lambda constant regions; also called chimeric antibody sp34; mouse sp34
B4: hzsp34.97 (antibody, human IgG1, lambda, L234A L235A, V domains shown)
VH: EVQLVESGGGLVQPGGSLKLSCAASGFTFNTYAMNWVRQASGKGLEWVGRIRSKAGGYATYYADSVKDRFTISRDDSKSTLYLQMNSLKTEDTAVYYCARHGNFGQSYVSWFAYWGQGTTVTVSS
VL: QAVVTQEPSLTVSPGGTVTLTCRSSTGAVTTSNYANWVQQKPGQAPRGLIGGTNKRAPGVPARFSGSLLGDKAALTLLGAQPEDEAEYYCALWYSNLWVFGQGTKLTVLG
notes: CDR mutant of hzsp34.24; IgG1 L234A L235A, lambda
B5: hzsp34.116 (antibody, human IgG1, lambda, L234A L235A, V domains shown)
VH: B4 VH with A55Y, G56N, G57N
VL: B4 VL with K55S, N96D
notes: as for B4
B6: 033 (bispecific antibody, human IgG1, kappa, lambda, L234A L235A)
heavy 1: not shown
light 1: not shown
heavy 2: not shown
light 2: B1 light 2
notes: 1+1, IgG1 LALA knob-into-hole; also called CLDN18.2xCD3 bispecific antibody 033; HB37A6 x HzSP34.97
B7: hzsp34.24 (antibody, human IgG1, lambda, L234A L235A, V domains shown)
VH: B4 VH with A55Y, G56N, G57N
VL: B4 VL
notes: IgG1 L234A L235A, lambda; parent of the CDR mutants
B8: hzsp34.38 (antibody, human IgG1, kappa, L234A L235A, V domains shown)
VH: B4 VH with A55Y, G56N, G57N, Q106N
VL: EIVMTQSPATLSVSPGERATLSCRSSTGAVTTSNYANWVQQKPGQAPRGLIGGTNKRAPGVPARFSGSGSGTEFTLTISSLQSEDFAVYYCALWYSNLWVFGQGTKLTVLR
notes: IgG1 L234A L235A, kappa
B9: hzsp34.40 (antibody, human IgG1, kappa, L234A L235A, V domains shown)
VH: B4 VH with G49A, A55Y, G56N, G57N
VL: B8 VL
notes: IgG1 L234A L235A, kappa
B10: hzsp34.45 (antibody, human IgG1, kappa, L234A L235A, V domains shown)
VH: B4 VH with G49A, A55Y, G56N, G57N
VL: B8 VL with T72D
notes: IgG1 L234A L235A, kappa
B11: hzsp34.42 (antibody, human IgG1, kappa, L234A L235A, V domains shown)
VH: B4 VH with A55Y, G56N, G57N, S79N, Q106N
VL: B8 VL with T72D
notes: IgG1 L234A L235A, kappa

Substitutions are numbered along the chain they refer to. Numbers in names are those of the source.

T2 sequence (P07766 23-207, chain 1 of 3): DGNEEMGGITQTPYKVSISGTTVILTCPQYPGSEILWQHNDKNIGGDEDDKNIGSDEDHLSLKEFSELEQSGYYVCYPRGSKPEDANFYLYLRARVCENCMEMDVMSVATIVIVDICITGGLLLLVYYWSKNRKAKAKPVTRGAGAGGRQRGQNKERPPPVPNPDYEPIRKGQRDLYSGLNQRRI
T2 sequence (P04234 22-171, chain 2 of 3): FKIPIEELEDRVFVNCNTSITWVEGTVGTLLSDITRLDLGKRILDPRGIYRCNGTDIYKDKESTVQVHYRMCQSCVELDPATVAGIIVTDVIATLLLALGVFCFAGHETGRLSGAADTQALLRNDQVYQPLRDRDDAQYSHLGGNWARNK
T2 sequence (P09693 23-182, chain 3 of 3): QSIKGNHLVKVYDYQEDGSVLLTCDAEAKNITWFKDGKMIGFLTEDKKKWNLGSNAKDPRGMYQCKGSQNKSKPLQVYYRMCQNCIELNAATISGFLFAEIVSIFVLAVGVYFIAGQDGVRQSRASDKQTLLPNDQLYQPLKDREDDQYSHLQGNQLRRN

In one assay the target is T1, human CLDN18.2 on tumor cells (NUGC-4; DAN-G-hCLDN18.2) (human, UniProt P56856-2 1-261).
T1 sequence (looked up): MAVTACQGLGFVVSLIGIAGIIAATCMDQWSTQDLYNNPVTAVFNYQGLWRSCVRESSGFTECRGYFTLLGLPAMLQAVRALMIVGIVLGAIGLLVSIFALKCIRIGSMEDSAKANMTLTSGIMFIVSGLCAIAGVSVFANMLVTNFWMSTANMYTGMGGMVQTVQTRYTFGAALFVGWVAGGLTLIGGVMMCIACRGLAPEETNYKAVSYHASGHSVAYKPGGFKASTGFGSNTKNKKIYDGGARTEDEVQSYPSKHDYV
Briefly: cell-based or functional assay.
In the case of B1, the “EC50 of killing of DAN-G-hCLDN18.2 cells by PBMC” value is < 0.1 pM and the “EC50 of killing of NUGC-4 cells by PBMC” value was < 0.001 nM.
As to B2, the “EC50 of killing of DAN-G-hCLDN18.2 cells by PBMC” value was < 0.1 pM and the “EC50 of killing of NUGC-4 cells by PBMC” value was < 0.001 nM.

The next assay concerns the target T2, human CD3 complex on Jurkat cells (human, UniProt P07766 23-207; P04234 22-171; P09693 23-182).
T2 construct: whole, on cells; natural CD3 complex of Jurkat T cells (also used here for CD3 on T cells of human PBMC); also called human CD3 at the cell level; CD3 on T cells
Nature of the assay: flow cytometry on Jurkat cells (human CD3 complex), 'Jurkat cell line binding', method of Example 3.2. As for the experimental part: (§1) Jurkat cells are immortalized human T lymphocytes, which express human CD3 complex. The cell line is used to detect the binding of the antibody to the cell. The detailed operation was as follows: Jurkat cells (Promega, J1621) was inoculated into U-shaped 96-well plate, 2×10⁵ for each well. The antibodies to be detected at a series of concentration gradients (the initial concentration of antibody molecule is 500 nM, 3 folds serial dilution) was added into the corresponding cell well, incubated at 4° C. for 30 minutes, and then PBS was used to wash out the unbound part. The sheep anti-human Fc PE fluorescent second antibody (Southern Biotech, J2815-5H87B) was added, then incubated at 4° C. for 15 minutes. and detected by flow cytometry ([…] BD). […] Some of these antibodies were selected to make a further binding curve at cell level.
As for B3, the “EC50 (read off the curve)” value was ~0.5 nM.
Regarding B4, the “EC50 (read off the curve)” value is ~2 nM.
Turning to B5, the “EC50 (read off the curve)” value is ~4 nM.

A further assay deals with T3, human Claudin 18.2 (GenScrip, P50251802) (human, UniProt P56856-2 1-261, limits assumed).
T3 construct: bought antigen coupled to the chip; also called human CLDN18.2; CLDN18.2
T3 sequence (looked up): T1 sequence (looked up)
Nature of the assay: SPR, antigen on chip. On the procedure: The equilibrium dissociation constant (KD) of binding to human CLDN18.2 was determined by surface plasma resonance (SPR). […] After coupling, 1 M ethanolamine was injected to block the remaining activation sites. According to the manufacturer's instructions, the binding and dissociation between the chip surface antigen and various bispecific antibodies in the mobile phase were detected by Biacore (GE Healthcare, T200) to obtain the affinity and kinetic constants. The antibody after serial dilution (0-100 nM, twice dilution) flowed through the chip surface in order from low concentration to high concentration, with binding time of 180 s and dissociation time of 600 s. Finally, 10 mM Glycine pH 1.5 (GE Healthcare, BR-1003-54) was used to regenerate the chip. The resulting data were analyzed using the Biacore T200 analysis software and the 1:1 combination model.
With B1, the Kd stood at 0.576 nM, the koff is 0.0002 s⁻¹ and the on-rate (kon) was 347000 M⁻¹ s⁻¹.
Regarding B2, the Kd was 0.57 nM.
For B6, the Kd was found to be 0.57 nM.

In the next assay the target is T4, human CD3 E&D complex protein (Sino Biological Inc., CT026H0323H) (human, UniProt P07766 23-126; P04234 22-105).
T4 construct: bought heterodimer; also called human CD3 protein (CT026H0323H)
T4 sequence (P07766 23-126, chain 1 of 2): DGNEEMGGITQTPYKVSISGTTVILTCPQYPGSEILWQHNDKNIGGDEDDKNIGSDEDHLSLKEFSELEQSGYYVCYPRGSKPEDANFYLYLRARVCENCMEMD
T4 sequence (P04234 22-105, chain 2 of 2): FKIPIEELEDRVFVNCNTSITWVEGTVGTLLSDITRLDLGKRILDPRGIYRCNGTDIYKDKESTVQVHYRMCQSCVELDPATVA
Nature of the assay: BLI, antibody on sensor. As for the experimental part:
The equilibrium dissociation constant (KD) of the bispecific antibody of the invention binding to human CD3 protein was determined by the Biolayer Interferometry (BLI). The affinity determination of BLI method was carried out according to the existing methods (Estep, P et al., High throughput solution based measurement of antibody-antigen affinity and affinity binding. MAbs, 2013.5 (2): 270-8).
An appropriate number of AHC (18-5060, Fortebio) sensors was taken and soaked in SD buffer (1×PBS, BSA 0.1%, Tween-20 0.05%) according to the number of samples at half an hour before the experiment. 100 μl of SD buffer, each bispecific antibody and human CD3 protein (CT026H0323H, Sino Biological Inc.) were added into 96-well black polystyrene semi-quantitative micro-well plate (Greiner, 675076). Fortebio Octet Red96 was used for detection, and the sensor position was selected according to the sample position. The setting parameters of the instrument were as follows: operation steps: Baseline, Loading-1 nm, Baseline, Association and Dissociation; the operation time of each step depended on the speed of sample combination and dissociation. The rotational speed was 1000 rpm and the temperature was 30° C. ForteBio Octet analysis software was used to analyze KD value.
As for B1, the Kd was determined as 7.46 nM, the koff turned out to be 0.00516 s⁻¹ and the association rate constant (kon) is 693000 M⁻¹ s⁻¹.
As for B2, the Kd amounted to 89.1 nM, the koff stood at 0.0718 s⁻¹ and the kon worked out at 807000 M⁻¹ s⁻¹.
As for B6, the Kd came to 446 nM, the koff came to 0.169 s⁻¹ and the kon turned out to be 379000 M⁻¹ s⁻¹.

The target of the next assay is T5, human CD3E&G complex (Sino Biological Inc., CT041-H0305H) (human, UniProt P07766 23-126; P09693 23-116).
T5 construct: bought heterodimer; also called human CD3E&G antigen
T5 sequence (P07766 23-126, chain 1 of 2): as the sequence (P07766 23-126, chain 1 of 2) above
T5 sequence (P09693 23-116, chain 2 of 2): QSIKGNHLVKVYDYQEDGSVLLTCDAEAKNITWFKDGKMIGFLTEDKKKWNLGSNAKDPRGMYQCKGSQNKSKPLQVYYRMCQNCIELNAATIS
Briefly: BLI, antibody on sensor.
Turning to B3, the Kd was determined as 6.22 nM, the koff was 0.00149 s⁻¹ and the kon was 240000 M⁻¹ s⁻¹.
Regarding B7, the affinity, expressed as Kd, was 8 nM; the koff was determined as 0.00179 s⁻¹; the kon was determined as 224000 M⁻¹ s⁻¹.
Molecule B4 registered a Kd of 11 nM, a koff of 0.00148 s⁻¹ and a kon of 135000 M⁻¹ s⁻¹.
B5 gave a Kd of 16 nM, a koff of 0.00286 s⁻¹ and a kon of 179000 M⁻¹ s⁻¹.

The next assay deals with T4, human CD3 E&D complex protein (Sino …). Nature of the assay: BLI, antibody on sensor. This is another data set of the same source.
In turn, B3 displayed a Kd of 0.638 nM, a koff of 0.000157 s⁻¹ and a kon of 246000 M⁻¹ s⁻¹.
In turn, B7 showed a Kd of 0.975 nM, a koff of 0.000234 s⁻¹ and a kon of 240000 M⁻¹ s⁻¹.
The molecule B4 gave a Kd of 5.62 nM, a koff of 0.00156 s⁻¹ and an on-rate constant (kon) of 278000 M⁻¹ s⁻¹.
For the molecule B5, the dissociation constant (Kd) turned out to be 4.11 nM, the koff was found to be 0.000914 s⁻¹ and the kon came to 223000 M⁻¹ s⁻¹.

The next assay has as its target T2, human CD3 complex on Jurkat cells. Nature of the assay: flow cytometry on Jurkat cells (human CD3 complex), 'Jurkat cell line binding', Example 3.2 [cont) D]. On the procedure: as §1
Molecule B3 had an EC50 of 2 nM.
On the same count and under the same terms, the same measure for B8: 7.85 nM; for B7: 1.25 nM.
In turn, B9 came in with an EC50 of 91.9 nM.
B10 displayed an EC50 of 122 nM.
Molecule B11 yielded a concentration giving a half-maximal response (EC50) of 39.2 nM.

Another assay concerns the target T4, human CD3 E&D complex protein (Sino …). Nature of the assay: BLI, antibody on sensor. The source holds these as a separate data set.
For B3, the Kd turned out to be 0.932 nM, the koff came to 0.0019 s⁻¹ and the kon is 2.04e+06 M⁻¹ s⁻¹.
The matching figures for B8: 12.7 nM, 0.00505 s⁻¹ and 397000 M⁻¹ s⁻¹.
Regarding B7, the affinity, expressed as Kd, was 0.718 nM; the koff came to 0.00247 s⁻¹; the kon was determined as 3.44e+06 M⁻¹ s⁻¹.
In turn, B9 had a Kd of 16.8 nM, a koff of 0.00515 s⁻¹ and a kon of 307000 M⁻¹ s⁻¹.
In turn, B10 came in with a Kd of 18.4 nM, a koff of 0.0065 s⁻¹ and a kon of 353000 M⁻¹ s⁻¹.
B11 came in with a Kd of 14.7 nM, a koff of 0.00526 s⁻¹ and a kon of 357000 M⁻¹ s⁻¹.

The target in a further assay is T6, cynomolgus monkey CD3 E&D complex protein (Sino Biological Inc., CT032-00323H) (cynomolgus monkey, UniProt Q95LI5 22-117; Q95LI8 22-105).
T6 construct: bought heterodimer
T6 sequence (Q95LI5 22-117, chain 1 of 2): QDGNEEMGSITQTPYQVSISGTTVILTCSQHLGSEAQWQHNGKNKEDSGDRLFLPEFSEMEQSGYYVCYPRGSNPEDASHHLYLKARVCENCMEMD
T6 sequence (Q95LI8 22-105, chain 2 of 2): as the sequence (P04234 22-105, chain 2 of 2) above, with I5V, N15K, I20V, S32T, D33N, I34N, T64A, S74N, V83L counted along it
Nature of the assay: BLI, antibody on sensor.
B3 displayed a Kd of 0.646 nM, a koff of 0.000795 s⁻¹ and an association rate constant (kon) of 1.23e+06 M⁻¹ s⁻¹.
The matching figures for B8: 6.36 nM, 0.00183 s⁻¹ and 288000 M⁻¹ s⁻¹.
In turn, B7 returned a Kd of 0.738 nM, a koff of 0.000941 s⁻¹ and a kon of 1.28e+06 M⁻¹ s⁻¹.
The matching figures for B9: 15.3 nM, 0.003 s⁻¹ and 196000 M⁻¹ s⁻¹.
B10 returned a Kd of 26.9 nM, a koff of 0.00521 s⁻¹ and a kon of 194000 M⁻¹ s⁻¹.
The matching figures for B11: 10.2 nM, 0.00248 s⁻¹ and 243000 M⁻¹ s⁻¹.
